Columns and labels:
Assay in all cases: cell-based or functional assay
[1] = biological target: SARS-CoV-2 spike (S) protein, variant KP.2 (SARS-CoV-2) (UniProt P0DTC2)
[2] = biological target: SARS-CoV-2 spike (S) protein, variant BA.2.86 (SARS-CoV-2) (UniProt P0DTC2)
[3] = biological target: SARS-CoV-2 spike (S) protein, variant KP.2.3 (SARS-CoV-2) (UniProt P0DTC2)
[4] = biological target: SARS-CoV-2 spike (S) protein, variant B.1.427 (SARS-CoV-2)
[5] = biological target: SARS-CoV-2 spike (S) protein, variant JN.1 (SARS-CoV-2) (UniProt P0DTC2)
[6] = biological target: SARS-CoV-2 spike (S) protein, variant P.1 (SARS-CoV-2)
[7] = biological target: SARS-CoV-2 spike (S) protein, variant JN.1 (SARS-CoV-2)
[8] = biological target: SARS-CoV-2 spike (S) protein, variant BA.1 (SARS-CoV-2)
[9] = biological target: SARS-CoV-2 spike (S) protein, variant JD.1.1 (SARS-CoV-2)
[10] = biological target: SARS-CoV-2 spike (S) protein, variant B.1.617.1 (SARS-CoV-2)
[11] = biological target: SARS-CoV-2 spike (S) protein, variant CH.1.1 (SARS-CoV-2)
[12] = biological target: SARS-CoV-2 spike (S) protein, variant B.1.1.7 (SARS-CoV-2)
[13] = biological target: SARS-CoV-2 spike (S) protein, variant EG.5.1 (SARS-CoV-2) (UniProt P0DTC2)
[14] = biological target: SARS-CoV-2 spike (S) protein, variant KP.3 (SARS-CoV-2) (UniProt P0DTC2)
[15] = biological target: SARS-CoV-2 spike protein, variant KP.3 (SARS-CoV-2)
[16] = biological target: SARS-CoV-2 spike (S) protein, variant B.1.617.2 (SARS-CoV-2)
[17] = biological target: SARS-CoV-2 spike (S) protein, variant CH.1.1 (SARS-CoV-2) (UniProt P0DTC2)
[18] = biological target: SARS-CoV-2 spike (S) protein, variant XBB.1.16.6 (SARS-CoV-2)
[19] = biological target: SARS-CoV-2 spike protein, variant KP.2 (SARS-CoV-2)
[20] = biological target: SARS-CoV-2 spike (S) protein, variant P.2 (SARS-CoV-2)
[21] = biological target: SARS-CoV-2 spike (S) protein, variant B.1.351 (SARS-CoV-2)
[22] = biological target: SARS-CoV-2 spike (S) protein, variant XBB.2.3.2 (SARS-CoV-2)
[23] = biological target: SARS-CoV-2 spike (S) protein, variant EG.5.1 (SARS-CoV-2)
[24] = biological target: SARS-CoV-2 spike (S) protein, variant XBB (SARS-CoV-2)
[25] = biological target: SARS-CoV-2 spike (S) protein, variant B.1.525 (SARS-CoV-2)
[26] = biological target: SARS-CoV-2 spike (S) protein, variant XBB.1.5 (SARS-CoV-2)
[27] = biological target: SARS-CoV-2 spike (S) protein, variant BA.4/5 (SARS-CoV-2)
[28] = biological target: SARS-CoV-2 spike (S) protein, variant LB.1 (SARS-CoV-2) (UniProt P0DTC2)
[29] = biological target: SARS-CoV-2 spike (S) protein, variant XEC (SARS-CoV-2) (UniProt P0DTC2)
[30] = biological target: SARS-CoV-2 spike (S) protein, variant B.1.621 (SARS-CoV-2)
[31] = biological target: SARS-CoV-2 spike (S) protein, variant B.1.429 (SARS-CoV-2)
[32] = biological target: SARS-CoV-2 spike (S) protein, variant BA.2.86 (SARS-CoV-2)
[33] = biological target: SARS-CoV-2 spike (S) protein, variant KP.3.1.1 (SARS-CoV-2) (UniProt P0DTC2)
[34] = biological target: SARS-CoV-2 spike (S) protein, variant B.1.526 (SARS-CoV-2)
[35] = biological target: SARS-CoV-2 spike (S) protein, D614G (SARS-CoV-2) (UniProt P0DTC2)

AZD3152 (antibody) was tested. Which neutralizing activity IC50 (µg/ml (caption; values match nM)) [1] did it give?
Its neutralizing activity IC50 (µg/ml (caption; values match nM)) is greater than 67.

What about the neutralizing activity IC80 (µg/ml (caption; values match nM)) [1] of the same substance?
Its neutralizing activity IC80 (µg/ml (caption; values match nM)) is greater than 67.

What about the neutralizing activity IC80 (µg/ml (caption; values match nM)) [2] of the same substance?
Its neutralizing activity IC80 (µg/ml (caption; values match nM)) is 2.23.

And the neutralizing activity IC50 (µg/ml (caption; values match nM)) [3]?
Its neutralizing activity IC50 (µg/ml (caption; values match nM)) is greater than 67.

What about the neutralizing activity IC80 (µg/ml (caption; values match nM)) [3] of the same substance?
Its neutralizing activity IC80 (µg/ml (caption; values match nM)) is greater than 67.

What about the IC50, pseudovirus neutralization [4] of the same substance?
The IC50, pseudovirus neutralization was 0.598 nM.

What about the IC80, pseudovirus neutralization [4] of the same substance?
The IC80, pseudovirus neutralization was 2.03 nM.

What about the neutralizing activity IC50 (µg/ml (caption; values match nM)) [5] of the same substance?
The neutralizing activity IC50 (µg/ml (caption; values match nM)) was 5.11.

And the neutralizing activity IC80 (µg/ml (caption; values match nM)) [5]?
Its neutralizing activity IC80 (µg/ml (caption; values match nM)) is 28.

And the IC50, pseudovirus neutralization [6]?
Its IC50, pseudovirus neutralization is 0.315 nM.

What about the IC80, pseudovirus neutralization [6] of the same substance?
The IC80, pseudovirus neutralization was 0.548 nM.

And the IC50, pseudovirus neutralization [7]?
Its IC50, pseudovirus neutralization is 5.11 nM.

What about the IC80, pseudovirus neutralization [7] of the same substance?
The IC80, pseudovirus neutralization was 28 nM.

And the IC50, pseudovirus neutralization [8]?
The IC50, pseudovirus neutralization was 0.0779 nM.

What about the IC80, pseudovirus neutralization [8] of the same substance?
Its IC80, pseudovirus neutralization is 0.446 nM.

And the IC50, pseudovirus neutralization [9]?
The IC50, pseudovirus neutralization was greater than 67 nM.

And the IC80, pseudovirus neutralization [9]?
Its IC80, pseudovirus neutralization is greater than 67 nM.

What about the IC50, pseudovirus neutralization [10] of the same substance?
The IC50, pseudovirus neutralization was 0.271 nM.

What about the IC80, pseudovirus neutralization [10] of the same substance?
The IC80, pseudovirus neutralization was 0.687 nM.

What about the IC50, pseudovirus neutralization [11] of the same substance?
The IC50, pseudovirus neutralization was 0.301 nM.

What about the IC80, pseudovirus neutralization [11] of the same substance?
The IC80, pseudovirus neutralization was 1.59 nM.

What about the IC50, pseudovirus neutralization [12] of the same substance?
Its IC50, pseudovirus neutralization is 0.622 nM.

What about the IC80, pseudovirus neutralization [12] of the same substance?
Its IC80, pseudovirus neutralization is 1.54 nM.

And the neutralizing activity IC50 (µg/ml (caption; values match nM)) [13]?
Its neutralizing activity IC50 (µg/ml (caption; values match nM)) is greater than 67.

What about the neutralizing activity IC80 (µg/ml (caption; values match nM)) [13] of the same substance?
Its neutralizing activity IC80 (µg/ml (caption; values match nM)) is greater than 67.

And the neutralizing activity IC50 (µg/ml (caption; values match nM)) [14]?
The neutralizing activity IC50 (µg/ml (caption; values match nM)) was greater than 67.

And the neutralizing activity IC80 (µg/ml (caption; values match nM)) [14]?
Its neutralizing activity IC80 (µg/ml (caption; values match nM)) is greater than 67.

What about the IC50 (nM), pseudovirus neutralization [15] of the same substance?
The IC50 (nM), pseudovirus neutralization was greater than 67 nM.

And the IC50, pseudovirus neutralization [16]?
The IC50, pseudovirus neutralization was 0.602 nM.

And the IC80, pseudovirus neutralization [16]?
Its IC80, pseudovirus neutralization is 2.2 nM.

And the neutralizing activity IC80 (µg/ml (caption; values match nM)) [17]?
The neutralizing activity IC80 (µg/ml (caption; values match nM)) was 1.59.

What about the pseudotyped neutralization potency IC50 [17] of the same substance?
Its pseudotyped neutralization potency IC50 is 0.501 nM.

And the pseudotyped neutralization potency IC80 [17]?
Its pseudotyped neutralization potency IC80 is 1.47 nM.

And the IC50, pseudovirus neutralization [18]?
Its IC50, pseudovirus neutralization is greater than 67 nM.

And the IC80, pseudovirus neutralization [18]?
The IC80, pseudovirus neutralization was greater than 67 nM.

What about the IC50 (nM), pseudovirus neutralization [19] of the same substance?
The IC50 (nM), pseudovirus neutralization was greater than 67 nM.

And the IC50, pseudovirus neutralization [20]?
The IC50, pseudovirus neutralization was 0.135 nM.

And the IC80, pseudovirus neutralization [20]?
Its IC80, pseudovirus neutralization is 0.359 nM.

And the IC50, pseudovirus neutralization [21]?
Its IC50, pseudovirus neutralization is 0.163 nM.

What about the IC80, pseudovirus neutralization [21] of the same substance?
The IC80, pseudovirus neutralization was 0.459 nM.

What about the IC50, pseudovirus neutralization [22] of the same substance?
Its IC50, pseudovirus neutralization is 0.168 nM.

What about the IC80, pseudovirus neutralization [22] of the same substance?
Its IC80, pseudovirus neutralization is 0.513 nM.

And the IC50, pseudovirus neutralization [23]?
Its IC50, pseudovirus neutralization is greater than 67 nM.

What about the IC80, pseudovirus neutralization [23] of the same substance?
The IC80, pseudovirus neutralization was greater than 67 nM.

And the IC50, pseudovirus neutralization [24]?
The IC50, pseudovirus neutralization was 0.0748 nM.

What about the IC80, pseudovirus neutralization [24] of the same substance?
The IC80, pseudovirus neutralization was 0.349 nM.

And the IC50, pseudovirus neutralization [25]?
The IC50, pseudovirus neutralization was 0.668 nM.

What about the IC80, pseudovirus neutralization [25] of the same substance?
The IC80, pseudovirus neutralization was 1.53 nM.

What about the IC50, pseudovirus neutralization [26] of the same substance?
The IC50, pseudovirus neutralization was 0.109 nM.

And the IC80, pseudovirus neutralization [26]?
The IC80, pseudovirus neutralization was 0.355 nM.

What about the IC50, pseudovirus neutralization [27] of the same substance?
Its IC50, pseudovirus neutralization is 0.198 nM.

What about the IC80, pseudovirus neutralization [27] of the same substance?
Its IC80, pseudovirus neutralization is 0.656 nM.

What about the neutralizing activity IC50 (µg/ml (caption; values match nM)) [28] of the same substance?
Its neutralizing activity IC50 (µg/ml (caption; values match nM)) is greater than 67.

What about the neutralizing activity IC80 (µg/ml (caption; values match nM)) [28] of the same substance?
Its neutralizing activity IC80 (µg/ml (caption; values match nM)) is greater than 67.

And the neutralizing activity IC50 (µg/ml (caption; values match nM)) [29]?
The neutralizing activity IC50 (µg/ml (caption; values match nM)) was greater than 67.

What about the neutralizing activity IC80 (µg/ml (caption; values match nM)) [29] of the same substance?
The neutralizing activity IC80 (µg/ml (caption; values match nM)) was greater than 67.

What about the IC50, pseudovirus neutralization [30] of the same substance?
The IC50, pseudovirus neutralization was 0.265 nM.

What about the IC80, pseudovirus neutralization [30] of the same substance?
Its IC80, pseudovirus neutralization is 0.625 nM.

And the IC50, pseudovirus neutralization [31]?
The IC50, pseudovirus neutralization was 0.549 nM.

And the IC80, pseudovirus neutralization [31]?
Its IC80, pseudovirus neutralization is 1.39 nM.

And the IC50, pseudovirus neutralization [32]?
Its IC50, pseudovirus neutralization is 0.351 nM.

And the IC80, pseudovirus neutralization [32]?
Its IC80, pseudovirus neutralization is 2.23 nM.

And the neutralizing activity IC50 (µg/ml (caption; values match nM)) [33]?
Its neutralizing activity IC50 (µg/ml (caption; values match nM)) is greater than 67.

What about the neutralizing activity IC80 (µg/ml (caption; values match nM)) [33] of the same substance?
Its neutralizing activity IC80 (µg/ml (caption; values match nM)) is greater than 67.

And the IC50, pseudovirus neutralization [34]?
Its IC50, pseudovirus neutralization is 0.329 nM.

And the IC80, pseudovirus neutralization [34]?
Its IC80, pseudovirus neutralization is 1.04 nM.

And the IC50, pseudotyped neutralization potency [35]?
Its IC50, pseudotyped neutralization potency is 0.016 nM.

And the IC50, pseudovirus neutralization [35]?
Its IC50, pseudovirus neutralization is 0.102 nM.

And the IC80, pseudotyped neutralization potency [35]?
The IC80, pseudotyped neutralization potency was 0.032 nM.

What about the IC80, pseudovirus neutralization [35] of the same substance?
Its IC80, pseudovirus neutralization is 0.623 nM.

— patent US20250326823A1
